Columns and labels:
Assay in all cases: co-purification after bacterial coexpression, molar ratio by rpHPLC; (Ca2+)4-CaM copurified with His-GST-tagged FGF NTD fragments; complexes separated on a C-18 column, ratio from peak areas at 220 nm
[1] = molecular target: FGF11ANTD (FGF11A N-terminal domain, aa 1-68) (human) (UniProt Q92914)
[2] = molecular target: FGF12ANTD (FGF12A N-terminal domain, aa 1-70) (human) (UniProt P61328)
[3] = molecular target: FGF13ANTD (FGF13A N-terminal domain, aa 1-66) (human) (UniProt Q92913)
Sequence of FGF13ANTD (FGF13A N-terminal domain, aa 1-66) (human) (Q92913 other isoform, or with tags, fused parts or gaps): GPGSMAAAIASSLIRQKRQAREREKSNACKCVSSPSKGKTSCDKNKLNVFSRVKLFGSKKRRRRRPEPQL

[4] = molecular target: FGF14ANTD (FGF14A N-terminal domain, aa 1-68) (human) (UniProt Q92915)
Sequence of FGF14ANTD (FGF14A N-terminal domain, aa 1-68) (human) (Q92915 other isoform, or with tags, fused parts or gaps): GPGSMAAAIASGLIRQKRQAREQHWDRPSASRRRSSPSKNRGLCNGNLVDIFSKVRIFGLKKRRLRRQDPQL

Measured: stoichiometry N ((Ca2+)4-CaM per FGF NTD)

Sequence of FGF11ANTD (FGF11A N-terminal domain, aa 1-68) (human) (Q92914 other isoform, or with tags, fused parts or gaps): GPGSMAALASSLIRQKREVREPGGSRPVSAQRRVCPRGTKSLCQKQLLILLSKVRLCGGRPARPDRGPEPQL
Sequence of FGF12ANTD (FGF12A N-terminal domain, aa 1-70) (human) (P61328 other isoform, or with tags, fused parts or gaps): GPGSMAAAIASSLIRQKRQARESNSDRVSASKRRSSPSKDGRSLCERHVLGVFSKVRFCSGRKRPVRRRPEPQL

calmodulin, wild type, full-length (aa 1-148) (from UniProt P0DP23 1-149) (natural protein)
1: all assays above
